The values that follow come from patent US20090029864A1.

T1: His-tagged Stx 2B-subunit (wild type) (enterohemorrhagic Escherichia coli O157:H7), P09386
T1 chain: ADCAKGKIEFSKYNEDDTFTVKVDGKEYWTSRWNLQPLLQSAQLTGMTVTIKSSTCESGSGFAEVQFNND

This experiment addresses T1, His-tagged Stx 2B-subunit (wild type) ….
On to MAPPPRRRRA (modifications not checked) [(Met-Ala-PPPRRRR-Ala-AHA-)4-3Lys], for which the RUmax amounted to 1250 AU.
In the case of MAKRRNPRRA (modifications not checked) [(Met-Ala-KRRNPRR-Ala-AHA-)4-3Lys] it was 1290 AU.
In the case of MAPPRRNRRA (modifications not checked) [(Met-Ala-PPRRNRR-Ala-AHA-)4-3Lys] it was 1350 AU; in that of MAFRRNRRNA (modifications not checked) [(Met-Ala-FRRNRRN-Ala-AHA-)4-3Lys], 1490 AU.
